Data reported in article PMC4838387, “PolDIP2 interacts with human PrimPol and enhances its DNA polymerase activities”.

T1: PrimPol^1–354 (human) (UniProt Q96LW4)
T1 sequence: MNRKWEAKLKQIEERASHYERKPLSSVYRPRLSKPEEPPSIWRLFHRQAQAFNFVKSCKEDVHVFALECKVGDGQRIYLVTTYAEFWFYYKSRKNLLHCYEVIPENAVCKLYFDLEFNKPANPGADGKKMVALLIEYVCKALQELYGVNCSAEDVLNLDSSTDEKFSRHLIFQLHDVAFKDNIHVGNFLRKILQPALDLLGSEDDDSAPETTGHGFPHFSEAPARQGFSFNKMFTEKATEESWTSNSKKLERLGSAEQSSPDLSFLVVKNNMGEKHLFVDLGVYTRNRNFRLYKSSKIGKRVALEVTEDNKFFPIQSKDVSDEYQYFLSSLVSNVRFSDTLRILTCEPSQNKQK

T2: full-length human PrimPol (human) (UniProt Q96LW4)
T2 sequence: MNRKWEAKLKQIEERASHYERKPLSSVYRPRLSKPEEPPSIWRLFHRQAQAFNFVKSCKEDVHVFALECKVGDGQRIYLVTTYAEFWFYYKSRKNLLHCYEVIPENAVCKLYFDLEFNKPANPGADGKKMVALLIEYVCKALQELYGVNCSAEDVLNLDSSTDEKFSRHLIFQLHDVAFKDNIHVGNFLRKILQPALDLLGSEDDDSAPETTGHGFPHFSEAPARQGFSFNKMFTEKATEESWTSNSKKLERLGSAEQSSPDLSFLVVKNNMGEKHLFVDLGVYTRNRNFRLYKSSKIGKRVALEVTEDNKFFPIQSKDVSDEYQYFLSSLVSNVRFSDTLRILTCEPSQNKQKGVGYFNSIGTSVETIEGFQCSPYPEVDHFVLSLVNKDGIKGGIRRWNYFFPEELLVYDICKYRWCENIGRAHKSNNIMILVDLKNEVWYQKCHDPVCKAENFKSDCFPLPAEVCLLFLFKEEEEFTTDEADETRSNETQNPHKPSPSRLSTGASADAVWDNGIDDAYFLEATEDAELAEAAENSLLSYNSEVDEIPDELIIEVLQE

T3: PolDIP2 (untagged) (UniProt Q9Y2S7 1-368)
T3 sequence: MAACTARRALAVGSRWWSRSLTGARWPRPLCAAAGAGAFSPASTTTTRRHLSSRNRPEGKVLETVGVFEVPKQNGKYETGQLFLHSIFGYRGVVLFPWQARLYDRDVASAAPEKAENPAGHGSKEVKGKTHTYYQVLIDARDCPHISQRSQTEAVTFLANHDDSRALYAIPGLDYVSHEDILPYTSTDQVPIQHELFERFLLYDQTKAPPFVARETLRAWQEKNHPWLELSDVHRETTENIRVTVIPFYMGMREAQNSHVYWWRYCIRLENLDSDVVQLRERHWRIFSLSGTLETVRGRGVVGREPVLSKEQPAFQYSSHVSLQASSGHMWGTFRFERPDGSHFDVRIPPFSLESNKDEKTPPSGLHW

T4: PrimPol24-354 (AEP catalytic domain) (human, UniProt Q96LW4 24-354)
T4 sequence: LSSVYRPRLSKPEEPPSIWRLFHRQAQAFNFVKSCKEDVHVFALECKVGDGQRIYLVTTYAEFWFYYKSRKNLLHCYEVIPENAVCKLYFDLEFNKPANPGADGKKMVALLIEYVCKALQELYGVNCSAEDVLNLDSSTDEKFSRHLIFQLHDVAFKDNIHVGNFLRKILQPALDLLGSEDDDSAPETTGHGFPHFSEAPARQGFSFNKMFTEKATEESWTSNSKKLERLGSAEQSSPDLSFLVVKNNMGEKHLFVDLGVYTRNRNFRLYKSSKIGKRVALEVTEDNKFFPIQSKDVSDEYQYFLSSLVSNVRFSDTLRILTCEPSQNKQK

B1: GST-PolDIP2 (natural protein)
chain: SSRNRPEGKVLETVGVFEVPKQNGKYETGQLFLHSIFGYRGVVLFPWQARLYDRDVASAAPEKAENPAGHGSKEVKGKTHTYYQVLIDARDCPHISQRSQTEAVTFLANHDDSRALYAIPGLDYVSHEDILPYTSTDQVPIQHELFERFLLYDQTKAPPFVARETLRAWQEKNHPWLELSDVHRETTENIRVTVIPFYMGMREAQNSHVYWWRYCIRLENLDSDVVQLRERHWRIFSLSGTLETVRGRGVVGREPVLSKEQPAFQYSSHVSLQASSGHMWGTFRFERPDGSHFDVRIPPFSLESNKDEKTPPSGLHW
B2: 20/97-mer primer/template (HP-20 / ND-97) (mixed)
DNA 1: TGTCGTCTGTTCGGTCGTTC
DNA 2: ACCGCGAACTTGAATTCTAGTTCAGTCTAAATGCTCTCAAGCACTGAGCAATTCACAACATATGGCTTTCGATTACCGAACGACCGAACAGACGACA

Legend:
PrimPol^1–354 (human) = target: T1, PrimPol^1–354 (human)
[1] = target: T2, full-length human PrimPol (human)
PolDIP2 (untagged) = target: T3, PolDIP2 (untagged); assay: EMSA; PolDIP2 alone (100 nM in Fig 2A), 10 mM Mg2+; EMSA: 10 mM Bis-Tris-propane-HCl pH 7.0, 10 mM MgCl2, 100 uM DTT, 20 nM DNA; 5% native PAGE, 0.5x TBE; binding temperature not stated; conditions: protein: recombinant; tags: none (GST cleaved with PreScission protease); label: 5'-HEX on primer; 3'-biotin on template; 20 bp duplex; template 5' overhang 77 nt
[2] = target: T4, PrimPol24-354 (AEP catalytic domain); assay: EMSA; PrimPol 0.05-1 uM, 10 mM Mg2+, no PolDIP2; EMSA: 10 mM Bis-Tris-propane-HCl pH 7.0, 10 mM MgCl2, 100 uM DTT, 20 nM DNA; 5% native PAGE, 0.5x TBE; binding temperature not stated; conditions: protein: recombinant; label: 5'-HEX on primer; 3'-biotin on template; 20 bp duplex; template 5' overhang 77 nt

Binder	K half of the stimulation of primer extension by PrimPol 1-354 (20 nM) on 20/50-mer DNA, GST-PolDIP2 0-120 nM (PrimPol^1–354 (human))	K half of the stimulation of primer extension by PrimPol (20 nM) on 20/50-mer DNA, GST-PolDIP2 0-120 nM [1]	binding result (PolDIP2 (untagged))	binding result [2]
B1	33.9 nM	41 nM	–	–
B2	–	–	no binding	binds
